Data published in US12156889B2, “Methods of administering mesenchymal stem cells activated by cytokines for enhancing immunosuppression” (Rutgers, The State University of New Jersey, priority 2012, dated 2024).

Test system: MSCs
Experiment: Gene expression in cytokine-treated MSCs (quantitative RT-PCR, Western Blot)
Format: cell-based, mouse
Experimental: FIG. 6. IL-17A greatly enhances inflammatory cytokine-induced iNOS expression in mouse BM-MSCs at both mRNA and protein levels. BM-MSCs were treated with the indicated cytokines. The iNOS gene expression was measured by real-time PCR.
FIGS. 10A, 10B, 10C, 10D and 10E. (FIGS. 10A and 10C). MSCs were cultured with different combinations of inflammatory cytokines IFNγ, TNFα, IL-17A (10 ng/ml) for 12 hr, and then cells were harvested for RNA extraction. The mRNA expression levels of inflammatory molecules iNOS, IL-6, CXCL1 (FIG. 10A) and chemokines CCL2, CCL5, CXCL9, CXCL10 (FIG. 10C) were detected by quantitative RT-PCR. (FIG. 10B). MSCs were cultured with different combinations of inflammatory cytokines IFNγ, TNFα, IL-17A (10 ng/ml) for 24 hr, and the protein level of iNOS was detected by Western Blot. (FIG. 10D). MSCs were supplemented with Sup-CD3 or Sup-CD3 pretreated with antibodies against IL-17A, and cells were collected for RNA extraction after 12 hr. The expression of iNOS, IL-6, CXCL1, CCL2, CCL5, CXCL9 and CXCL10 were measured by quantitative RT-PCR. Sup-CD3: supernatant from splenocytes activated by anti-CD3 and anti-CD28. (FIG. 10E). MSCs were treated with Sup-CD3 or Sup-CD3 pretreated with antibodies against IL-17A, and the protein level of iNOS was assessed by Western Blot after 24 hr. mRNA expression values are means±SEM of three wells from a representative of three independent experiments. Western Blot data is from a representative of three independent experiments.
FIGS. 11A, 11B, 11C and 11D. (FIG. 11A) MSCs with Act1 knockdown or control were treated with IL-17A for different time and the phosphorylation levels of IκBα, ERK, p65, JNK were assessed by Western Blot. (FIG. 11B) MSCs with Act1 knockdown or control were treated with IFNγ and TNFα with or without IL-17A (all cytokines supplemented at 5 ng/ml) the protein levels of iNOS and Act1 were assessed by Western Blot. (FIG. 11C) MSCs (Act1 knockdown or control) were treated with different cytokines 12 hr, and iNOS expression was measured by quantitative RT-PCR. mRNA expression values are means±SEM. (FIG. 11D) MSCs (Act1 knockdown or control) were first treated with IFNγ and TNFα with or without IL-17A (all cytokines supplemented at 5 ng/ml) for 12 hr, and then cocultured with T cell hybridoma A1.1 cells at a ratio of 1:10 for 12 hr. T cell proliferation was measured by 3H-Tdr incorporation, taking the proliferation level of A1.1 alone as 100%.
FIGS. 12A and 12B. (FIG. 12A). WT MSCs or auf1^−/− MSCs were treated with IFNγ and TNFα, or together with IL-17A (all cytokines supplemented at 10 ng/ml) for 12 hr, and iNOS, IL-6 and CXCL1 expression was measured by quantitative RT-PCR. mRNA expression values are means±SEM of three wells from a representative of three independent experiments. (FIG. 12B). WT MSCs were treated with IFNγ and TNFα (10 ng/ml), or together with different concentrations of IL-17A; auf1^−/−-MSCs were treated with IFNγ and TNFα (10 ng/ml), or together with 10 ng/ml of IL-17A. After 24 hr, cells were harvested for detection of iNOS by Western Blot. Western blot is a representative of three independent experiments.
RNA isolation and gene expression assay-Total RNA was isolated with the RNAprep Pure Cell/Bacteria Kit. First-strand cDNA synthesis was performed with a cDNA synthesis kit. The levels of mRNAs were measured by quantitative RT-PCR (7900 HT; Applied Biosystems, Foster City, CA) with SYBR Green Master Mix and normalized to the level of β-actin mRNA. Sequences of forward and reverse primer pairs are as follows:
Western blotting analysis-Cells were washed twice with ice-cold PBS, harvested and lysed in the RIPA buffer (Millipore, Temecular, CA) containing a cocktail of protease inhibitors (Roche, Natley, NJ) and PMSF (Sigma) for 30 min on ice. Lysates were clarified by centrifugation at 16,000 g for 15 minutes. Protein concentration of the supernatant was determined by the Bradford assay (Bio-Rad, Hercules, CA). […]

[1] = together with IFNγ and TNFα, 10 ng/ml, 12 hr

B1: IL-17A: recombinant mouse interleukin 17A (protein)
chain: AAIIPQSSACPNTEAKDFLQNVKVNLKVFNSLGAKVSSRRPSDYLNRSTSPWTLHRNEDPDRYPSVIWEAQCRHQRCVNAEGKLDHHMNSVLIQQEILVLKREPESCPFTFRVEKMLVGVGCTCVASIVRQAA
For B1, the “IFNγ+TNFα induced iNOS expression in Act1 knockdown MSCs” value (5 ng/ml) was “could not upregulate”, the “expression of CCL5, CCL2, CXCL9, CXCL10” value (addition to IFNγ and TNFα, 10 ng/ml, 12 hr) was “unaffected” and the “expression of iNOS at mRNA and protein levels in BM-MSCs” value (in the presence of IFNγ and TNFα) was “greatly enhanced”. The “iNOS, IL-6, and CXCL1 mRNAs in wild-type MSCs” value [1] was “significant increases”, the “increase of iNOS, IL-6, and CXCL1 mRNA abundance in auf1−/− MSCs” value [1] was “less than twofold” and the “IL-17A induction of iNOS expression in MSCs with AUF1 knocked down with siRNA” value (with IFNγ+TNFα) was “largely abrogated”. For the same molecule, the “iNOS expression in wild type MSCs” value (with IFNγ+TNFα) was “strikingly induced”.
